Reference: the domain aggregation screens of Martell et al. (2025)

Experiment: soluble fraction after stress (log2 fold change); higher = more stays soluble; pooled small domains, quantitative proteomics
Settings: stress: pH 4
Outline: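 Small protein domains from pooled custom libraries were exposed to pH 4, then quantified with high-throughput quantitative proteomics. The fold change in how much of each domain remains soluble is read as aggregation propensity. It is given as log2, with higher values meaning more stayed soluble.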

Sequence	soluble fraction (log2)
HMKTLPADPTVKNFSYTVVDGEIYYRENSIMTQIELSDNAKGRVAGMVELRQIVNELIDQQLND	-1.52
HMNNISKKIKELREQNNITQNKLANDLFIKQQTVAQWENGSRALKADSIISLAKYFNVSTDYLLGLTEN	-0.634
HMTIATLGERIRKLRKERGLTLAELAGDKLSKGMLSLIENNRAKPSMESLEYIAKRLGVEPAELLE	0.297
HMQEEMIRGDIKLNTVMQTVHLAVGTETERNWQPVETTAKEFELLKLLMENPGVTLKKEYLFHMLI	-0.654
HMLMDVRVPDIIGVEINQAKEILTASSLLIGKITYVSLPEIEKDLVIETSVLAGRRVSAGTVIDITVNKE	-0.87
HMADYSGYLGKKGKVIAPLRPAGTALIDGERVDVVSFGDYIDKDSEIEVVKIEGSKLLVKKY	0.128
HMNISLGALVTITDQKGRSHTVTLESGKQFFTNHGSINHDEIIKAGEGGVVASSSGMLYTIFTP	-0.551
HMEYQTVEKSEAEQIIQELEKAERLALKVYSKNDIITGISVSDGKSYYFSAELVPMLKNIIENPEIKIL	-1.14
HMTPNATWQDDAQSLLRDLIQHQPVLIQISAAKRLRDQAEQISRITGGDTVTRDHVEAAGHALGMGVT	-0.39
HMATVHVDGIQYDFSSPEQAKEFAYKWAKKHNLTWEVHGETIHIK	-0.0405
HMPKAPHETLSRREMEVLLLLSEGVTLTRIGDTIHVSVKTVSTYRARILQKLDLQSNAELTRYVLQHKL	≥ 0.43
HMQLVPGIGRLSARELEVFTLIGRGLGTSEIGKKLGVSAYTVQTHRNHIKEKLNLPNAAAITYWAIQWAHG	-0.338
HMGTRPIQIASFSKEENAKRAVEALAKIGITAQPQKSGSATKAVWGVVANGDADLLAKIKAAGFADAYFL	0.179
HMPRIYSITINPEKIRTVIGPGGKVIKDITAKTGTKIEIDDSGKVDIFSPDEEHARMAVEIINTLTEE	-0.221
HMTSMNNTEELIDMANKIIDNNPNMVLKYKEGRNVLDFFIGQVMKETKGRANPSATSKIFKDLLEK	0.171
HMSMFTPAQVAQTLTVPPSTLRRWAKRFAPFLSPQSGKKRTYTVADLDTFQRIKELSAQGYTFAQIDQAL	-0.101
HMIRILIVDDSAFMRKLLSDVFEEDKNFVVVDTARNGQDAVEKVKRLKPDLVTMDVEMPVMDGLTAVEIIM	-1.12
HMADFIGMNATVTERIFPQGFGRISFVYEGNSISEPARSEDGKEIPTGTSVVVLEVRDKVYIVQPL	-0.0827
HMQIAEAESLGQRLLQQSINNIVGRDEAITEERLNRVLSQYSLTGRDELMAQIGLGNRNSSLVAKAMYDI	-0.35
HMAIELIDLIKNPETAPFSKLKYLKWMPEAEVTGFFNNLFQLNVTARETGDWSTVDKFLEDEGDRIAAQVA	-0.215
HMGFYDLFINLADKVGSLADVTQILAEARINLVNVHILEIREEIDGIAQLTFSSEKDRQKALELLKTKYK	-1.52
HMNSQSGKGGVGYILETKYGLNLPPKMREAMGYAAKGVSDHLHKELHPDEIFDLFKKTFENVGQPYS	0.197
HMDRMMQPETWGRVYQWITDDPQVPDREEVLTLIKYHYGDFGKLMKLLHRLNEGKAWTYLSEHIFPRM	-0.698
HMEDKFEYQGERKSLIYPTSFSELTEALGVRNMLQSIIDFATRDEDTSGYEEMKERQNEYIQEYL	0.0125
HMVEVPEQLRDLLERSIEDLAELSVRSRNSLQKENIQTLGDLVQRTEEEMLGIENFGKKSLTEIAAFL	-0.92

Sequence	soluble fraction (log2)
HMGPLTMGQRIVRLRTQAGLSQDALAEQLGVSRQSVSKWETDGSVPDLDRLVKLSKVFGVTLDELVKG	≥ 0.43
HMTEEDVVIFSGLSDRDLKMVQTELANSGIKYTLPTSGTVSVPNSEIARAQMVLAMAGIPRS	-0.0859
HMNITHEINVKSKSKIDFLENNKNLAQFFLTKNPNQFNYNLVFSDKSELNIIKEKIESHKDIEDIDIRYG	-1.11
HMDPTVTFIVQVNGRVRDKITLSSDISENEAKNVALESPKITPHISGKSLSRVIFVPGKLINLVV	0.162
HMDSIDIDAETKSLGPNAPQIIKGIKEWGQGLVAKGVWSDQDFEEFKVFAATANGINALNKVRKFY	-0.192
HMSDYKSALQEAVQTNKQSIEYVLIKESGPAHNKTFTFEVRIDNISYGVGTAKSKKEAEQIAAKDALDKLV	-0.103
HMKRKAIDQSWQPDKEAIEILSKAGVNEEFIKEEIPEFILYWSEKGEESDTWNSKFIAQVRRQWAKTQH	0.248
HMFINITAITGNNYNTPDAARNALPNTYNKKIGLVFTYRDLTNRYRVYLYNSETSNYIPLDSYM	-1.28
HMPASVEYIRLAAEQMTGQQVTIIEQPGNYAFILRIHLNDIYSLDLAALRARIDELKPAHLTYTVEQYD	-1.85
HMETLKEMDSKGAINASEVNVREGAGTSSSKMYSLSKGASVDVTGIKGDWYRVHTSKGTGYVLAKYVTLVS	≥ 0.43
HMHINLEGLKKIDFRKKIGFLFGSEASGLSNKEVSYANYTLQIPTNINFKSLNLSHSLIIIAQFISSLLNS	0.126
HMLAPLAEMRGDTLDRLEKAVLELFSSRDFHEVSLQDVARRANVSLQTIYKYFGSKEALVYTMLDTLLGR	-0.87
HMSGEPKNERQIEVPDVTKKSIREANNILTSEGLRLRIEGTGLAVSQKPAAGTMVEPDTIITVTFQAP	-0.0704
HMLTAPMPGIVRQVNVDTGQKVRKGQPLMVLEAMKMEHQIIAPQAGKIEAIHYNEGDRVEMGSVLISIF	-0.538
HMALPDWLDPEAWAAWKRHRKAIRKPLTEDAVALSIRELAKLRDEGYGPTSVIENAILKGWQGLYPPK	0.143
HMNRYPIQTEVHAFNDDIIKEAINFEMSRGGQIFFVNNRIPQLYELENTIHRLVPDARVVIGHGQMP	-0.722
HMVIANADVRAKFSKGKDSFVKYYFKEKVLKDGFTEEVKNNIVQALFYLQIVTRIDGESGVLIIDY	0.187
HMEGYLYLSESQNELILKNLKTPLKYNLYNASGKLIKKGNIKNTLDISELPKGVYIFTSSDNSFSKKFLKT	0.276
HMSADDSDDRKGIDAWLTQLLANGSVKATEVYSAADAAGYSKDQAKRAKRRLAIEAVREAMDGPWFWRLD	-0.742
HMDGIDALEPLMRRVFEALPQRRSMTIERAAVAAGLDEESVKIALVRLQLEGYVANDERGWHRSKSPH	-0.000736
HMSEPTLESLRAEGAHHYDPARFHYLEVLARRMPGQHAAVQQVLASRLREAVAAYAGRRSLI	-0.252
HMETGNEDYRVGKELAYDGNYKAATIYLMKSIKDDPNNPDAFNMLGFSHRKLGNNDEAYIYYNKALEL	-0.722
HMSGTESMIEGRGEARTAIDGEGKVFFQGEYWTAQSDQFIPQGAKVRIKKVEGLNLIVEEIK	-0.796
HMSENMSQDLAQWYRLQQALHPNLDAPELWATDLTSQQRTVRDQLIQQWAQEKRDSLWSEISGD	-0.618
HMRKEEFIRELVLELKQNVSEQVILEQKRFYEEYILTEVRGGKTEEEVIASLSEPRLLAKSIIDAAEAGGD	-1.5

Sequence	soluble fraction (log2)
HMVTTTEAAKMLLVNAGHDVIKDGLTGASWASNTMKLADADGLLASVATKPNDALPRQYAAQMIYN	0.265
HMYDEAAIRKAVMTFVTDNRDERLDLAKISAVLTSKFGNINFDELGYKRFSSFIDSFPELRRNNTFVSLR	-0.193
HMVREVSYDQFLHFVEAKQVGMVYQDGESLMFTLKEDVEKEWGVTAYKTGLWPDANLTDRLLDAGVVFS	-1.65
HMHLDIGQLVQRILADIQVGKLADGQRKLPAEPVLMERYQVTRYTLRQALKQLSNMGYTYQMHGIGTFVRQ	-0.211
HMAQQEMEIIPLRHRQVEQVMPTLRPLLEPGAALSGMNNQLILRASRKNREEIKQALAVIDT	0.121
HMTGLFSPTEQTRHSKTGATLYSVKLAERIERNAFQSLKKRAKEHDGYYSSFTRSFLFDTPEDAEAFRGT	-0.0888
HMSSDLESVIGTHSQEANFALRSWGWIQPDETWKNLRPDQVSQILERANEFMAKAIESFANAQSE	-0.984
HMKEAITVIGGKNNITFDASAQAEIGIYSMDGVQIQKKTISDNERIDLPAGMYVVTVKTGQANVSKVVVV	-0.145
HMHDEKHHQLANEIARKWAALRGNRDFAAADELKNLAAEAGVELQATKQAVGQGALAKLKENFDPVKLEAL	0.22
HMTGGLLVHVAGAVGAPGVVSLPEGARVVDAIEAAGGAREDADTDQLNLARPVVDGEQVRVPVVGEVLE	0.22
HMTKNEFLASFQNELQKRHIPDWEDVVSEYEQHFALKQADGFSEEEIAAKLGAPAELAAQFEA	-0.0811
HMGSFDDAPDQLRQSILQLLAEGPLPPSAITERLNISREDATEALQQLLDEQRIFAVNGMLQLQPG	-0.538
HMSQKVQEDFLGDIRKNEIAVTVFLINGVKLQGVITWFDDASILLRRDGHTQLIYKHAVSTIMPGVAVDI	-0.632
HMATLQLPVPKITLYPGELIRSDHLTDQRFNARALYHSAVYKSREDIVGKVARRTLLPGQPIPVNALR	0.194
HMGTISKRINPSGTTVYRAVIRIRKNGYPNFTESRTFSKKSMAAEWVKRREAEIELNPDILFG	-0.0195
HMDYEVPEELEEKFSENPQFKEAFDNLTPGRQHQYIYHISQAKRSQTRINRIEKYYEHILNGKGMQD	0.416
HMRNTPQRRHAILALLSEQGEVSVDALAKRFSTSEVTIRKDLAAMESHGLLLRRYGGAVPMPQELI	0.0719
HMDQFMLQSAWLRAVQHVMKHTDDVGTQFAEEARRMHYGEADERPIRGQATSDEARALHDEGIEVMALPI	-0.192
HMKELVEDFASRISNARQSKGWNQSELAKRMAETVNVVKSAESGKSPTDSVIKKLERVLGIILM	0.0723
HMFQNYTDAVVVASKTFFYNMPDESTRKSAYLIQGDRIMVEKSQRNFVYVTFTNEASGRTTTGWLKSDDLE	-0.00722
HMGWEDLVGKTAVVKVALAPVGMVFFRGEFWSAISETGRIEPGEEVTISRIDGLKLYVTKKRIM	≥ 0.43
HMPPRFVPATGADLRRWLDVSGLTAEAAGDLLGVSGARFRQWLSRYRSAPLPDPVRALLVALLRP	-0.156
HMRITTKNYFKAISEVGFENLPEVLKKSHLVIEEKTNKGNDWGIYENDAEAKKVFDLAFDKLEEFIDRKED	-0.203
HMTEYFTIESQEGERIDRYLSEELEDKSRSYIQKLIRDGHVLVDGKTVKAGYRLVAGDNIAITLPEI	-0.133
HMKMLEINDNDSVGLKNLKTQYNHNQKVIENFQLEINKVINDGELPDKYLLDGMEKYQKLNMQIMSTIEKQ	0.221
